Assay results from patent US20050272099A1.

Target: androgen receptor (UniProt P10275)
Assay: cell-based or functional assay

Chain of UniProt P10275 (P10275 whole entry): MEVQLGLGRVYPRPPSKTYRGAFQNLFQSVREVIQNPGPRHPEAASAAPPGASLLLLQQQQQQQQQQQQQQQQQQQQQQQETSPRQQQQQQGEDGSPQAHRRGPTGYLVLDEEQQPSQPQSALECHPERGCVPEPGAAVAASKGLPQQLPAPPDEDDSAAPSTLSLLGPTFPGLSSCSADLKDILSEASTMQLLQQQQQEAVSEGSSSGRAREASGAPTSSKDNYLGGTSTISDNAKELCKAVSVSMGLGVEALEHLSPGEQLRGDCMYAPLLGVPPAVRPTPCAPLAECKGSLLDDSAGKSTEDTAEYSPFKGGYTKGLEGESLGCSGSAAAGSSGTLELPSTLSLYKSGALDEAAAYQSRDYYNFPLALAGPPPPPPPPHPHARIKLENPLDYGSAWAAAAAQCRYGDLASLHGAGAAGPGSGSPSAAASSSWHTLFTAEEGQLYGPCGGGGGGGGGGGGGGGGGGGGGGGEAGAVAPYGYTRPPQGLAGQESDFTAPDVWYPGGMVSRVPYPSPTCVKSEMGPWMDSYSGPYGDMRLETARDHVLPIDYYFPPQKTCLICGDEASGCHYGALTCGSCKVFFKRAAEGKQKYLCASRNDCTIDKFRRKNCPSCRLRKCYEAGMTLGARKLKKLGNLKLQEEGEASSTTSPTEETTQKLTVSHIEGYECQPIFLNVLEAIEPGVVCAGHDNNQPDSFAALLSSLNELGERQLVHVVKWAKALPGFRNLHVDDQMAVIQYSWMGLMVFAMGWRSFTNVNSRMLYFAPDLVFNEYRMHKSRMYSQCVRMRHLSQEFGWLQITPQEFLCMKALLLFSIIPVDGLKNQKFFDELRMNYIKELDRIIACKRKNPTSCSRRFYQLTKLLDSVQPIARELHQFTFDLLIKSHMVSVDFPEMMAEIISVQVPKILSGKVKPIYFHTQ

- luciferase activity, AFP promoter (androgen responsive element) reporter in G2 cells, relative to the control reporter with mutated ARE: 3 to 4 fold
Substance: androgen receptor complex-associated protein (from UniProt Q58WW2 1-860)
